Source: FireProtDB (doi:10.1021/bi020450z)

B1: Adrenodoxin, mitochondrial, P00257 (parent)
chain: MAARLLRVASAALGDTAGRWRLLARPRAGAGGLRGSRGPGLGGGAVATRTLSVSGRAQSSSEDKITVHFINRDGETLTTKGKIGDSLLDVVVQNNLDIDGFGACEGTLACSTCHLIFEQHIFEKLEAITDEENDMLDLAYGLTDRSRLGCQICLTKAMDNMTVRVPDAVSDARESIDMGMNSSKIE

Variants of: B1
Details: Bos taurus, reversible: YES, structure 1AYF, whole UniProt chain shown; for denaturant m value / denaturant midpoint (higher = more stable) / unfolding free energy: pH 7.5, 20 °C, GdnHCl, Fluorescence, Tris-HCl 50 mM; for Tm / change of melting temperature, mutant - wild type (higher = more stable): pH 8.5, Thermal, CD, Glycine

Variant	denaturant m value [kcal/mol/M]	denaturant midpoint (higher = more stable) [M]	unfolding free energy [kcal/mol]	Tm [°C]	change of melting temperature, mutant - wild type (higher = more stable) [°C]
F101W	2.19	1.5	3.28	45.4	-6.5
F117W	2.09	1.01	2.12	37.3	-14.6
F122W	2.28	1.82	4.17	48.7	-3.2
F69W	–	–	–	46.6	-5.3
Y140W	–	–	–	51.2	-0.7
